From US20230257469A1 (SINOCELLTECH, published 2023)
Like-named read-outs stand apart in the source and are kept apart here.

Legend:
[1] = molecular target: T1, EGFR on tumor cells (UniProt P00533 25-1210, limits assumed); assay: cell-based or functional assay
[2] = molecular target: T2, Recombinant human EGFR-His protein (human, UniProt P00533 25-645); assay: ELISA as in Example 1.2.1
T2 construct: Bought protein; also called recombinant human EGFR protein; human EGFR protein; not shown: His tag

[3] = molecular target: T1, EGFR on tumor cells; assay: cell-based or functional assay; remark: listed apart in the source
[4] = molecular target: T2, Recombinant human EGFR-His protein; assay: BLI (Fortebio OctetRED96e), biotinylated recombinant human EGFR protein, fit over several concentrations
[5] = molecular target: T2, Recombinant human EGFR-His protein; assay: ELISA as in Example 1.2.1; EC50 counted on the coated EGFR-His concentration
[6] = molecular target: T1, EGFR on tumor cells; assay: cell-based or functional assay; remark: listed apart in the source
[7] = molecular target: T1, EGFR on tumor cells; assay: cell-based or functional assay; remark: listed apart in the source
[8] = molecular target: T2, Recombinant human EGFR-His protein; assay: ELISA of expressed phage-library clones on recombinant human EGFR protein
[9] = molecular target: T2, Recombinant human EGFR-His protein; assay: ELISA; EGFR-His coated at 1.37-3000 ng/mL, antibody at 13.89 nM; EC50 counted on the coated antigen concentration

SCT200 (antibody)
EC50 (nM), inhibition of proliferation of Fadu cells, ligand: 1 µg /mL EREG [1]: 14.5 nM
EC50 (nM), inhibition of proliferation of Fadu cells, ligand: None [1]: 0.129 nM
EC50 (nM), inhibition of proliferation of MDA-MB-468 cells, ligand: 8 ng/mL HB-EGF [1]: 7.52 nM
EC50 (nM), inhibition of proliferation of MDA-MB-468 cells, ligand: 1 µg/mL EREG [1]: 1.44 nM
EC50 (nM), inhibition of proliferation of MDA-MB-468 cells, ligand: None [1]: 1.97 nM
Maximum inhibition rate (%), proliferation of Fadu cells, ligand: 4 ng/mL EGF [1]: 68.5%
Maximum inhibition rate (%), proliferation of Fadu cells, ligand: 8 ng/mL HB-EGF [1]: 65%
Maximum inhibition rate (%), proliferation of Fadu cells, ligand: 1 µg /mL EREG [1]: 48.3%
Maximum inhibition rate (%), proliferation of Fadu cells, ligand: None [1]: 49.7%
Maximum inhibition rate (%), proliferation of MDA-MB-468 cells, ligand: 8 ng/mL HB-EGF [1]: 53.4%
Maximum inhibition rate (%), proliferation of MDA-MB-468 cells, ligand: 200 ng/mL BTC [1]: 40.9%
Maximum inhibition rate (%), proliferation of MDA-MB-468 cells, ligand: 1 µg/mL EREG [1]: 66.7%
Maximum inhibition rate (%), proliferation of MDA-MB-468 cells, ligand: None [1]: 52.3%
EC50 [2]: 0.167 µg/mL

B1: humanized antibody EGFR-HPA8 (antibody, human IgG1, kappa, V domains shown)
VH: EVQLVQSGAEVKKPGATVKISCKVSGYTFTTYYTHWVKQAPGKGLEWIGWIYPGDVNTKYNEKFKGRVTLTADTSTDTAYMELSSLRSEDTAVYYCAREDPGSNYFDYWGQGTLVTVSS
VL: DIQMTQSPSSLSASVGDRVTITCRASENIYYSLAWYQQKPGKAPQLLIYITDGLADGVPSRFSGSGSGTDYTLKIDSLQPEDFATYYCKQSYDVPLTFGGGTKVEIKR
notes: IgG1/kappa; expressed in HEK-293 cells (fut8 knockout), ADCC-enhanced; also called EGFR-HPA8-Ae0
EC50 for the induction of ADCC, recombinant CD16a reporter gene system (Jurkat-NFAT-Luc2p-CD16A effector cells, A431 target cells) [3]: 0.008 nM
Kd [4]: 0.0069 nM
koff [4]: 1.1e-05 s⁻¹
kon [4]: 1.59e+06 M⁻¹ s⁻¹
EC50 [5]: 0.117 µg/mL
EC50 (nM), inhibition of proliferation of Fadu cells, ligand: 1 µg /mL EREG [6]: 10.9 nM
EC50 (nM), inhibition of proliferation of Fadu cells, ligand: None [6]: 0.126 nM
EC50 (nM), inhibition of proliferation of MDA-MB-468 cells, ligand: 8 ng/mL HB-EGF [7]: 2.64 nM
EC50 (nM), inhibition of proliferation of MDA-MB-468 cells, ligand: 1 µg/mL EREG [7]: 0.81 nM
EC50 (nM), inhibition of proliferation of MDA-MB-468 cells, ligand: None [7]: 0.9 nM

B2: EGFR-mhPA8 scFv antibody (scFv)
scFv: DIQMTQSPASLAASVGETVTITCRASENIYYSLAWYQQKEGKSPQLLIYITNGLADGVPSRFSGSGSGTQYSMKIDSMQPEDTATYFCKQSYDVPLTFGAGTKLEMKSSGGGGSGGGGGGSSRSSQVQLQQSGPDLVKPGASVRISCKVSGYTFTTYYTHWVKQRPGRGLEWIGWIYPGDVNTKYNEKFKGKATLTADKTSSTAYMQLSSLTSEDSAVYFCAREDPGSNYFDYWGQGTTLTVSS
notes: Screened as a clone of a phage display library in pComb3x; also called EGFR-mhPA8 scFv antibody clone; murine antibody scFv
binding result [8]: binds

B3: human-mouse chimeric antibody EGFR-mhPA8 (antibody, human IgG1, kappa, V domains shown)
VH: QVQLQQSGPDLVKPGASVRISCKVSGYTFTTYYTHWVKQRPGRGLEWIGWIYPGDVNTKYNEKFKGKATLTADKTSSTAYMQLSSLTSEDSAVYFCAREDPGSNYFDYWGQGTTLTVSS
VL: DIQMTQSPASLAASVGETVTITCRASENIYYSLAWYQQKEGKSPQLLIYITNGLADGVPSRFSGSGSGTQYSMKIDSMQPEDTATYFCKQSYDVPLTFGAGTKLEMKR
notes: Human IgG1 and kappa constant regions; also called murine antibody EGFR-mhPA8
EC50 of inhibition of proliferation of MDA-MB-468 cells (WST-8) [3]: 2.78 nM
EC50 [9]: 0.129 µg/mL
